{"source": "patent US20080124320A1", "about": "“Use of HMGB fragments as anti-inflammatory agents” (priority 2002, published 2008)", "molecules": {"B1": {"name": "B box: Recombinant human HMGB1 B box mutant polypeptide, SEQ ID NO:20, expressed with a GST gene fusion system in E. coli (protein, listed as Homo sapiens)", "chain": "FKDPNAPKRLPSAFFLFCSEYRPKIKGEHPGLSIGDVAKKLGEMWNNTAADDKQPYEKKAAKLKEKYEKDIAAY", "modifications": "GST fusion"}, "B2": {"name": "HMGB1: Recombinant full length human HMGB1, SEQ ID NO:18; recombinant rat HMGB1 used in some experiments (protein, listed as Homo sapiens)", "chain": "MGKGDPKKPTGKMSSYAFFVQTCREEHKKKHPDASVNFSEFSKKCSERWKTMSAKEKGKFEDMAKADKARYEREMKTYIPPKGETKKKFKDPNAPKRLPSAFFLFCSEYRPKIKGEHPGLSIGDVAKKLGEMWNNTAADDKQPYEKKAAKLKEKYEKDIAAYRAKGKPDAAKKGVVKAEKSKKKKEEEEDEEDEEDEEEEEDEEDEEDEEEDDDDE"}, "B3": {"name": "A box: Recombinant human HMGB1 amino terminus + A box mutant, SEQ ID NO:21 (A box SEQ ID NO:22), GST fusion system (protein, listed as Homo sapiens)", "chain": "MGKGDPKKPTGKMSSYAFFVQTCREEHKKKHPDASVNFSEFSKKCSERWKTMSAKEKGKFEDMAKADKARYEREMKTYIPPKGET", "modifications": "GST fusion"}}, "key": {"[1]": {"molecular_target": "RAGE on murine macrophage-like RAW 264.7 cells (mouse (murine RAW 264.7 cells)) (UniProt Q62151)", "sequence (Q62151 23-402)": "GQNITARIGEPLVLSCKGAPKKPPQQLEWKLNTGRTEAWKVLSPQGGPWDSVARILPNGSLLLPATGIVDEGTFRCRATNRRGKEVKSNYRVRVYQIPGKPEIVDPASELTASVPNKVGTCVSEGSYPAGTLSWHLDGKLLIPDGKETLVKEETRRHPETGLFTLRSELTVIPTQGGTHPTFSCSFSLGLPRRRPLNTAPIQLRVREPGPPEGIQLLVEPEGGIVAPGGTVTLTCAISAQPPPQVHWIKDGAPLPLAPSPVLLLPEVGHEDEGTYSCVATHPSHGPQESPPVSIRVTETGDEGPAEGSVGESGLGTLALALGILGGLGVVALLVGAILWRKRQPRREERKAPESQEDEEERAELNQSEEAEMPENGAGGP", "experiment": "cell-based or functional assay"}, "RAW 264.7 cells [2]": {"tested_on": "RAW 264.7 cells", "experiment": "TNF release from RAW 264.7 cells, L929 cytotoxicity bioassay", "assay_type": "cell-based, murine", "method": "(§1) Murine macrophage-like RAW 264.7 cells (American Type Culture Collection, Rockville, Md.) were cultured in RPMI 1640 medium (Life Technologies, Grand Island N.Y.) supplemented with 10% fetal bovine serum (Gemini, Catabasas, Calif.), penicillin and streptomycin (Life Technologies) and were used at 90% confluence in serum-free Opti-MEM I medium (Life Technologies, Grand Island, N.Y.). […] Polymyxin B was not used in experiments of synthetic peptide studies.\nTNF release was measured by a standard murine fibroblast L929 (ATCC, American Type Culture Collection, Rockville, Md.) cytotoxicity bioassay (Bianchi et al., Journal of Experimental Medicine 183:927-936, 1996) with the minimum detectable concentration of 30 pg/ml. […]\nThe effect of the mutants on TNF release from Murine macrophage-like RAW 264.7 cells (ATCC) was carried out as follows. […] Conditioned supernatants (containing TNF which had been released from the cells) were collected and TNF released from the cells was measured by a standard murine fibroblast L929 (ATCC) cytotoxicity bioassay (Bianchi et al., supra) with the minimum detectable concentration of 30 pg/ml. […]\nTo further examine the effect of HMGB1 B box on cytokine production, varying amounts of HMGB1 B box were evaluated for the effects on TNF, IL-1, and IL-6 production in murine macrophage-like RAW 264.7 cells. […]"}, "[3]": {"molecular_target": "Recombinant full length human HMGB1 (wild type HMGB1) (human)", "experiment": "cell-based or functional assay"}, "C3H/HeJ mice": {"tested_on": "C3H/HeJ mice", "experiment": "Lethality and histology in C3H/HeJ mice", "assay_type": "in vivo, mouse", "conditions": "8 hours after administration"}, "RAW 264.7 cells [4]": {"tested_on": "RAW 264.7 cells", "experiment": "IL-6 release from RAW 264.7 cells, ELISA", "assay_type": "cell-based, murine", "conditions": "B box 0-10 μg/ml, 8 hours (FIG. 2C)", "method": "as §1\nTo further examine the effect of HMGB1 B box on cytokine production, varying amounts of HMGB1 B box were evaluated for the effects on TNF, IL-1, and IL-6 production in murine macrophage-like RAW 264.7 cells. Conditioned media were harvested and measured for TNF, IL-1β and IL-6 levels. TNF levels were measured as described herein, and IL-1β and IL-6 levels were measured using the mouse IL-1β and IL-6 enzyme-linked immunosorbent assay (ELISA) kits (R&D System Inc., Minneapolis, Minn.) and N>5 for all experiments."}, "[5]": {"tested_on": "NF-κB-dependent ELAM promoter", "experiment": "NF-κB dependent ELAM promoter luciferase reporter in RAW 264.7 macrophages", "assay_type": "cell-based, murine", "conditions": "HMGB1 100 ng/ml or B box 10 μg/ml, 5 hours; decreased with MyD 88 dominant negative (FIG. 11B)", "method": "To examine the effects of HMGB1 or HMGB1 B box on the NF KB dependent ELAM promoter, the following experiment was carried out. RAW 264.7 macrophages were transiently co transfected with an expression plasmid encoding a murine MyD 88 dominant negative (DN) mutant (corresponding to amino acids 146 296), or empty vector, plus a luciferase reporter plasmid under the control of the NF κB dependent ELAM promoter, as described by Means et al. (J. Immunol. 166:4074 4082, 2001). A portion of the cells were then stimulated with full length HMGB1 (100 ng/ml), or purified HMGB1 B box (10 μg/ml), for 5 hours. Cells were then harvested and luciferase activity was measured, using standard methods. All transfections were performed in triplicate, repeated at least three times, and a single representative experiment is shown in FIG. 11B."}, "[6]": {"tested_on": "Balb/c mice subjected to CLP", "experiment": "Cecal ligation and puncture (CLP) sepsis, survival of Balb/c mice", "assay_type": "in vivo, mouse", "conditions": "i.p. twice daily for 3 days beginning 24 hours after CLP", "method": "Cecal ligation and puncture (CLP) was performed as described previously (Fink and Heard, J. Surg. Res. 49:186-196, 1990; Wichmann et al., Crit. Care Med. 26:2078-2086, 1998; and Remick et al., Shock 4:89-95, 1995). Briefly, Balb/c mice were anesthetized with 75 mg/kg ketamine (Fort Dodge, Fort Dodge, Iowa) and 20 mg/kg of xylazine (Bohringer Ingelheim, St. Joseph, Mo.) intramuscularly. A midline incision was performed, and the cecum was isolated. A 6-0 prolene suture ligature was placed at a level 5.0 mm from the cecal tip away from the ileocecal valve.\nThe ligated cecal stump was then punctured once with a 22-gauge needle, without direct extrusion of stool. The cecum was then placed back into its normal intra-abdominal position. […] Mortality was recorded for up to 1 week after the procedure; survivors were followed for 2 weeks to ensure no late mortalities had occurred.\nTo determine whether the HMGB1 A box can inhibit the lethality of HMGB1 during sepsis, mice were subjected to cecal perforation and treated by administration of A box beginning 24 hours after the onset of sepsis. […] Survival was monitored twice daily for up to 2 weeks to ensure no late death occurred. […]\nPassive immunization of critically ill septic mice with anti-HMGB1 antibodies was also assessed. […] Survival was monitored for 2 weeks. […]"}}}
{"molecule": "Recombinant full length human HMGB1 (wild type HMGB1) (from UniProt A9RA84 1-215) (ligand)", "values": [{"measurement": "decrease of HMG-1 signaling (TNF release from RAW 264.7 cells) by anti-RAGE antibody", "setting": "[1]", "result": 40, "unit": "%"}]}
{"molecule": "fkdpnapkrlpsafflfcse (FKDPNAPKRLPSAFFLFCSE; listed as Homo sapiens) [1-20]", "values": [{"measurement": "TNF release by synthetic B box peptide fragments", "setting": "RAW 264.7 cells [2]; synthetic peptide 10 μg/ml, 10 hours, no polymyxin B (FIG. 3), listed as 1-20-mer", "result": "less potent than either the full length synthetic B box (1-74-mer), or full length HMGB1"}]}
{"molecule": "HMGB1 A box protein (Amino terminus + A box mutant of human HMGB1) (from UniProt A9RA84 1-85)", "values": [{"measurement": "inhibition of HMGB1 induced TNF release from RAW 264.7 cells (L929 cytotoxicity assay)", "setting": "[3]", "result": 7.5, "unit": "µg/mL"}]}
{"molecule": "B1", "values": [{"measurement": "TNF protein expression over time versus medium only", "setting": "RAW 264.7 cells [2]; 10 μg/ml, 0-48 hours (FIGS. 2E, 2F)", "result": "stimulated TNF protein expression"}, {"measurement": "histology of heart", "setting": "C3H/HeJ mice", "result": "evidence of ischemia with loss of cross striation associated with amorphous pink cytoplasm in myocardial fibers"}, {"measurement": "histology of liver", "setting": "C3H/HeJ mice", "result": "mild acute inflammatory responses, with some hepatocyte dropout and apoptosis, and occasional polymorphonuclear leukocytes"}, {"measurement": "IL-6 release, dose response", "setting": "RAW 264.7 cells [4]", "result": "increased with increased amounts of B box"}]}
{"molecule": "B2", "values": [{"measurement": "luciferase activity (NF-κB dependent ELAM promoter)", "setting": "[5]", "result": "stimulated luciferase activity"}]}
{"molecule": "B3", "values": [{"measurement": "clinical condition of animals", "setting": "[6]; 60 μg/mouse", "result": "most died"}, {"measurement": "clinical condition of animals", "setting": "[6]; 600 μg/mouse", "result": "significantly more alert, active, and to resume feeding behavior"}]}
